According to doi:10.1101/2024.07.15.603533 (bioRxiv, 2024):

B1: recombinant kinetoplastid membrane protein-11 (r-KMP-11), wild type (natural protein, Leishmania donovani)
chain: MATTYEEFSAKLDRLDQEFNRKMQEQNAKFFADKPDESTLSPEMREHYEKFERMIKEHTEKFNKKMHEHSEHFKQKFAELLEQQKAAQYPSK

Key:
[1] = biological target: the molecule itself; test: negative stain electron microscopy
[2] = biological target: the molecule itself; test: single-molecule photobleaching step analysis
[3] = biological target: B1; test: fluorescence correlation spectroscopy

## B1
[1]
  stoichiometry N: 4

B2: Alexa488-maleimide labelled r-KMP-11 S38C (natural protein, Leishmania donovani)
chain: MATTYEEFSAKLDRLDQEFNRKMQEQNAKFFADKPDECTLSPEMREHYEKFERMIKEHTEKFNKKMHEHSEHFKQKFAELLEQQKAAQYPSK
modifications: Alexa 488 maleimide on the single cysteine (S38C); labeling percentage 86%
[2]
  stoichiometry N: 4
[3]
  binding result: binds
